Biological target: EGF receptor (EGFR) on PC12 cells
Test: cell-based or functional assay

percentage of PC12 cells with neurite outgrowth after 3 days, HB-EGF treated: 87.8% | rate of neurite extension induced by HB-EGF in PC12 cells in the presence of AG1478 (EGF receptor kinase inhibitor): 24.3%
Substance: GMP-grade human mature HB-EGF produced in P. pastoris yeast (from UniProt Q99075 63-148) (ligand)

Reference: US20120053121A1
